Test results from the supplement of paper PMC9112550, “Optimization of the antimicrobial peptide Bac7 by deep mutational scanning” (BMC Biology, 2022).
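Also: peptides expressed intracellularly from a pBAD plasmid library in pooled LB shake-flask culture, induced with 0.3% L-arabinose, DNA abundance read by NGS, three biological replicates, DESeq2 with apeglm shrinkage.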

What follows are sequences tested on Escherichia coli TOP10 (assay: shrunken log2 fold change of peptide-encoding DNA abundance (4.5 h post-induction vs induction); higher = less antimicrobial activity (less host growth inhibition)). Conditions: time post-induction: 4.5 h; library: site-saturation at positions 5, 18, 19, 20.
With RRIRTRPPRLPRPRPRPPSKPRP the “shrunken log2 fold change” value was -0.326.
With RRIRTRPPRLPRPRPRPPSTPRP the “shrunken log2 fold change” value was 0.186.
With RRIRTRPPRLPRPRPRPPVTPRP the “shrunken log2 fold change” value was 0.361.
RRIRTRPPRLPRPRPRPPYIPRP was tested, and the “shrunken log2 fold change” value was -0.694.
For RRIRTRPPRLPRPRPRPQAHPRP, the “shrunken log2 fold change” value was -0.452.
For RRIRTRPPRLPRPRPRPQCYPRP, the “shrunken log2 fold change” value was -0.256.
For RRIRTRPPRLPRPRPRPQECPRP, the “shrunken log2 fold change” value was -0.0262.
RRIRTRPPRLPRPRPRPQFPPRP was tested, and the “shrunken log2 fold change” value was -0.0282.
With RRIRTRPPRLPRPRPRPQFSPRP the “shrunken log2 fold change” value was -0.823.
In the case of RRIRTRPPRLPRPRPRPQFTPRP, the “shrunken log2 fold change” value is reported as -0.0397.
RRIRTRPPRLPRPRPRPQGWPRP was tested, and the “shrunken log2 fold change” value was 0.704.
With RRIRTRPPRLPRPRPRPQHCPRP the “shrunken log2 fold change” value was -0.0947.
RRIRTRPPRLPRPRPRPQHIPRP was tested, and the “shrunken log2 fold change” value was -0.554.
In the case of RRIRTRPPRLPRPRPRPQKGPRP, the “shrunken log2 fold change” value is reported as -0.00821.
RRIRTRPPRLPRPRPRPQKKPRP was tested, and the “shrunken log2 fold change” value was 0.0215.
With RRIRTRPPRLPRPRPRPQKYPRP the “shrunken log2 fold change” value was -0.263.
With RRIRTRPPRLPRPRPRPQLQPRP the “shrunken log2 fold change” value was -0.0711.
In the case of RRIRTRPPRLPRPRPRPQMHPRP, the “shrunken log2 fold change” value is reported as -0.426.
For RRIRTRPPRLPRPRPRPQMLPRP, the “shrunken log2 fold change” value was -0.0274.
RRIRTRPPRLPRPRPRPQNVPRP was tested, and the “shrunken log2 fold change” value was 0.0194.
RRIRTRPPRLPRPRPRPQPNPRP was tested, and the “shrunken log2 fold change” value was 0.0183.
In the case of RRIRTRPPRLPRPRPRPQPTPRP, the “shrunken log2 fold change” value is reported as 0.197.
For RRIRTRPPRLPRPRPRPQQCPRP, the “shrunken log2 fold change” value was -0.0115.
For RRIRTRPPRLPRPRPRPQQEPRP, the “shrunken log2 fold change” value was 0.0173.
RRIRTRPPRLPRPRPRPQRPPRP was tested, and the “shrunken log2 fold change” value was 0.158.
RRIRTRPPRLPRPRPRPQRWPRP was tested, and the “shrunken log2 fold change” value was 0.137.
In the case of RRIRTRPPRLPRPRPRPQSLPRP, the “shrunken log2 fold change” value is reported as -0.0105.
RRIRTRPPRLPRPRPRPQSTPRP was tested, and the “shrunken log2 fold change” value was -0.236.
With RRIRTRPPRLPRPRPRPQVDPRP the “shrunken log2 fold change” value was -0.0209.
In the case of RRIRTRPPRLPRPRPRPQYFPRP, the “shrunken log2 fold change” value is reported as -0.395.
For RRIRTRPPRLPRPRPRPQYGPRP, the “shrunken log2 fold change” value was -0.082.
In the case of RRIRTRPPRLPRPRPRPQYMPRP, the “shrunken log2 fold change” value is reported as -1.01.
In the case of RRIRTRPPRLPRPRPRPQYVPRP, the “shrunken log2 fold change” value is reported as -0.336.
For RRIRTRPPRLPRPRPRPRADPRP, the “shrunken log2 fold change” value was 0.158.
With RRIRTRPPRLPRPRPRPRCVPRP the “shrunken log2 fold change” value was -0.0783.
With RRIRTRPPRLPRPRPRPRDFPRP the “shrunken log2 fold change” value was 0.0849.
RRIRTRPPRLPRPRPRPRDKPRP was tested, and the “shrunken log2 fold change” value was -0.18.
For RRIRTRPPRLPRPRPRPREWPRP, the “shrunken log2 fold change” value was 0.259.
RRIRTRPPRLPRPRPRPRGAPRP was tested, and the “shrunken log2 fold change” value was 0.382.
With RRIRTRPPRLPRPRPRPRGIPRP the “shrunken log2 fold change” value was -0.0284.
In the case of RRIRTRPPRLPRPRPRPRGTPRP, the “shrunken log2 fold change” value is reported as 0.197.
In the case of RRIRTRPPRLPRPRPRPRHVPRP, the “shrunken log2 fold change” value is reported as 0.0629.
In the case of RRIRTRPPRLPRPRPRPRIFPRP, the “shrunken log2 fold change” value is reported as -0.158.
RRIRTRPPRLPRPRPRPRKPPRP was tested, and the “shrunken log2 fold change” value was 0.225.
For RRIRTRPPRLPRPRPRPRMAPRP, the “shrunken log2 fold change” value was 0.288.
RRIRTRPPRLPRPRPRPRMFPRP was tested, and the “shrunken log2 fold change” value was -0.0163.
With RRIRTRPPRLPRPRPRPRNAPRP the “shrunken log2 fold change” value was 0.0522.
In the case of RRIRTRPPRLPRPRPRPRNGPRP, the “shrunken log2 fold change” value is reported as -0.0659.
For RRIRTRPPRLPRPRPRPRNHPRP, the “shrunken log2 fold change” value was -0.345.
With RRIRTRPPRLPRPRPRPRPIPRP the “shrunken log2 fold change” value was -0.138.
RRIRTRPPRLPRPRPRPRQIPRP was tested, and the “shrunken log2 fold change” value was 0.0896.
For RRIRTRPPRLPRPRPRPRQMPRP, the “shrunken log2 fold change” value was 0.641.
RRIRTRPPRLPRPRPRPRQNPRP was tested, and the “shrunken log2 fold change” value was 0.067.
RRIRTRPPRLPRPRPRPRRAPRP was tested, and the “shrunken log2 fold change” value was 0.523.
For RRIRTRPPRLPRPRPRPRRVPRP, the “shrunken log2 fold change” value was 0.329.
In the case of RRIRTRPPRLPRPRPRPRRWPRP, the “shrunken log2 fold change” value is reported as -0.0464.
For RRIRTRPPRLPRPRPRPRSYPRP, the “shrunken log2 fold change” value was 0.0838.
In the case of RRIRTRPPRLPRPRPRPRTHPRP, the “shrunken log2 fold change” value is reported as -0.0753.
RRIRTRPPRLPRPRPRPRTIPRP was tested, and the “shrunken log2 fold change” value was 0.0752.
For RRIRTRPPRLPRPRPRPRVFPRP, the “shrunken log2 fold change” value was 0.212.
With RRIRTRPPRLPRPRPRPRWGPRP the “shrunken log2 fold change” value was 0.164.
For RRIRTRPPRLPRPRPRPRYTPRP, the “shrunken log2 fold change” value was 0.0216.
For RRIRTRPPRLPRPRPRPRYYPRP, the “shrunken log2 fold change” value was -0.112.
RRIRTRPPRLPRPRPRPSCCPRP was tested, and the “shrunken log2 fold change” value was -0.341.
For RRIRTRPPRLPRPRPRPSCKPRP, the “shrunken log2 fold change” value was -0.885.
In the case of RRIRTRPPRLPRPRPRPSDIPRP, the “shrunken log2 fold change” value is reported as -0.0989.
With RRIRTRPPRLPRPRPRPSDLPRP the “shrunken log2 fold change” value was -0.0743.
RRIRTRPPRLPRPRPRPSDSPRP was tested, and the “shrunken log2 fold change” value was -0.214.
For RRIRTRPPRLPRPRPRPSEQPRP, the “shrunken log2 fold change” value was 0.0636.
For RRIRTRPPRLPRPRPRPSEYPRP, the “shrunken log2 fold change” value was -0.0517.
With RRIRTRPPRLPRPRPRPSFNPRP the “shrunken log2 fold change” value was -0.507.
In the case of RRIRTRPPRLPRPRPRPSGHPRP, the “shrunken log2 fold change” value is reported as -0.17.
RRIRTRPPRLPRPRPRPSGQPRP was tested, and the “shrunken log2 fold change” value was 0.0245.
RRIRTRPPRLPRPRPRPSHEPRP was tested, and the “shrunken log2 fold change” value was -0.299.
In the case of RRIRTRPPRLPRPRPRPSIDPRP, the “shrunken log2 fold change” value is reported as -0.397.
In the case of RRIRTRPPRLPRPRPRPSIIPRP, the “shrunken log2 fold change” value is reported as -0.647.
For RRIRTRPPRLPRPRPRPSIKPRP, the “shrunken log2 fold change” value was -0.556.
For RRIRTRPPRLPRPRPRPSMHPRP, the “shrunken log2 fold change” value was -0.152.
With RRIRTRPPRLPRPRPRPSMRPRP the “shrunken log2 fold change” value was -0.107.
For RRIRTRPPRLPRPRPRPSNCPRP, the “shrunken log2 fold change” value was -0.414.
RRIRTRPPRLPRPRPRPSNFPRP was tested, and the “shrunken log2 fold change” value was -0.0603.
RRIRTRPPRLPRPRPRPSNGPRP was tested, and the “shrunken log2 fold change” value was -0.126.
RRIRTRPPRLPRPRPRPSNPPRP was tested, and the “shrunken log2 fold change” value was -0.663.
RRIRTRPPRLPRPRPRPSNQPRP was tested, and the “shrunken log2 fold change” value was -0.14.
RRIRTRPPRLPRPRPRPSNTPRP was tested, and the “shrunken log2 fold change” value was -0.732.
For RRIRTRPPRLPRPRPRPSPWPRP, the “shrunken log2 fold change” value was -0.114.
In the case of RRIRTRPPRLPRPRPRPSPYPRP, the “shrunken log2 fold change” value is reported as -0.573.
For RRIRTRPPRLPRPRPRPSQDPRP, the “shrunken log2 fold change” value was -0.355.
With RRIRTRPPRLPRPRPRPSQTPRP the “shrunken log2 fold change” value was -0.169.
In the case of RRIRTRPPRLPRPRPRPSRIPRP, the “shrunken log2 fold change” value is reported as -0.179.
In the case of RRIRTRPPRLPRPRPRPSSVPRP, the “shrunken log2 fold change” value is reported as -0.139.
With RRIRTRPPRLPRPRPRPSTIPRP the “shrunken log2 fold change” value was -0.386.
In the case of RRIRTRPPRLPRPRPRPSVMPRP, the “shrunken log2 fold change” value is reported as -0.372.
For RRIRTRPPRLPRPRPRPSVRPRP, the “shrunken log2 fold change” value was -0.155.
For RRIRTRPPRLPRPRPRPSYMPRP, the “shrunken log2 fold change” value was -1.28.
For RRIRTRPPRLPRPRPRPSYPPRP, the “shrunken log2 fold change” value was -1.08.
For RRIRTRPPRLPRPRPRPTCEPRP, the “shrunken log2 fold change” value was 0.125.
RRIRTRPPRLPRPRPRPTCRPRP was tested, and the “shrunken log2 fold change” value was -0.0601.
With RRIRTRPPRLPRPRPRPTDGPRP the “shrunken log2 fold change” value was -0.0714.
RRIRTRPPRLPRPRPRPTDIPRP was tested, and the “shrunken log2 fold change” value was 0.0221.
For RRIRTRPPRLPRPRPRPTEMPRP, the “shrunken log2 fold change” value was 0.3.
In the case of RRIRTRPPRLPRPRPRPTESPRP, the “shrunken log2 fold change” value is reported as -0.0539.
With RRIRTRPPRLPRPRPRPTFIPRP the “shrunken log2 fold change” value was -0.39.
RRIRTRPPRLPRPRPRPTFPPRP was tested, and the “shrunken log2 fold change” value was -0.0187.
With RRIRTRPPRLPRPRPRPTFWPRP the “shrunken log2 fold change” value was 0.467.
RRIRTRPPRLPRPRPRPTGFPRP was tested, and the “shrunken log2 fold change” value was -0.0124.
RRIRTRPPRLPRPRPRPTHVPRP was tested, and the “shrunken log2 fold change” value was 0.122.
In the case of RRIRTRPPRLPRPRPRPTLFPRP, the “shrunken log2 fold change” value is reported as -0.113.
RRIRTRPPRLPRPRPRPTSDPRP was tested, and the “shrunken log2 fold change” value was 0.0524.
